Reference: publication PMC11293113, “Comparing regional brain uptake of incretin receptor agonists after intranasal delivery in CD-1 mice and the APP/PS1 mouse model of Alzheimer’s disease” (Alzheimer's Research & Therapy, 2024)
One block for each compound: values may come before it.

Experiments:
[1] = mouse, in vivo
Excerpt: Initial distribution studies used male and female CD-1 mice (8–10 weeks old) purchased from Charles River Laboratories (Seattle, WA). Follow-up studies performed in male and female hemizygous APP/PS1 mice and WT littermates on a C57BL/6J background (Cat 034832-JAX) were purchased from the Mutant Mouse Resource & Research Centers (MMRRC-NIH) at approximately 2 months of age.
IRA administration followed the IN protocol outlined in Rhea et al.. Mice were anesthetized with 40% urethane intraperitoneally. […] Delicate delivery with negligible force was necessary to prevent injuring the turbinates or penetrating the cribriform plate. Tips were also examined for the presence of blood to ensure no cribriform plate rupture took place. Mice remained in the supine state for a duration of at least 30 s before being placed onto the left side.
Collection of blood occurred from the right carotid artery, and the whole brain and olfactory bulbs (Olf) were removed at 5, 15, 30, and 60 min time points after IN administration. […] Radioactivity levels were calculated for the whole brain by combining the radioactivity of each brain region and dividing by the total weights. The same was done for the neocortex (Crtx) by combining radioactivity and weights for the FC, PC, and OC. […] A 50 µl aliquot of the serum was then collected for measurement of radioactivity. Radioactivity amounts for each individual brain region, olfactory bulb, and serum were measured in a Wizard2 Automatic Gamma Counter (PerkinElmer, Waltham, MA) for 30 min. ^14C-DA5-CH samples were solubilized with Solvable (Sigma), transferred to scintillation vials containing Ecoscint (National Diagnostics) and ^14C was measured in a beta counter (TriCarb 3110TR, Perkin-Elmer). Radioactivity for ^125I was measured by counts per minute (cpm) while ^14C was measured by disintegrations per minute (dpm). […]
Injected dose percentages per ml of serum (%Inj/ml) were calculated by: […]
where Inj is dose of cpm administered and cpm/ml is the amount of radioactivity in one ml of serum. […]

[2] = mouse, in vivo, cited from earlier work
Excerpt: Using ^125I labelled IRAs, we tested the ability of intravenously administered IRAs to cross the blood-brain barrier (BBB) in mice. […] The BBB is a functional interface between blood and brain that allows for regulated entry of circulating substrates.

[3] = Stability of IRA following IN delivery (TCA acid precipitation of brain, olfactory bulb, serum) in CD-1 mice; conditions: mouse, in vivo
Description: Blood was centrifuged at 3200 xg for 10 min. Serum (50 µl) was combined with 250 µl of BSA/LR, then combined with 300 µl of 30% TCA. Tissues were homogenized in 0.6 ml of 1% BSA/LR solution using a bead beater for 30 s at 4800 rpm twice on ice. […] Equal parts supernatant (300 µl) was mixed with an equal volume of 30% TCA. Serum and brain acid precipitated samples were centrifuged at 5400 xg for 10 min. The supernatant (S) was transferred to a new tube, leaving behind the pellet (P). The final S and P fractions for serum, olfactory bulb, and whole brain were counted separately, and the percentage of radioactivity was calculated using.
%Precip = 100 x (P)/(S + P) as described.
All biological samples were corrected for processing degradation by dividing their values by this processing control (PCon) value and multiplying by 100.

[4] = in vivo; cited from earlier work
Description: IRAs are forms of these hormones modified to prolong their otherwise very short half-lives in plasma (less than 2 min).

Compound: dulaglutide (BAF): dulaglutide bioactive fragment, single IRA, 3315 Da, purchased from GLPBIO (catalog # GC31520); 125I-labelled
Serum level following IN delivery [1]: highest levels
Sex difference in maximum uptake in hypothalamus [1]: females having less uptake
Rate of crossing the BBB after IV administration [2]: quickly
Rate of whole brain uptake an hour after IV administration [2]: relatively high

Compound: lixisenatide: incretin receptor agonist, cited IV BBB data
Rate of crossing the BBB after IV administration [2]: slow rates

Whole brain maximal uptake relative to the other IRAs [1]: three-fold less uptake
Acid precipitation (AP%) olfactory bulb [3]: 100.9 ± 0.5%
Acid precipitation (AP%) serum [3]: 86.9 ± 1.1%
Acid precipitation (AP%) whole brain [3]: 74.7 ± 17.7%
Compound: CC[C@H](C)[C@H](NC(=O)[C@H](Cc1ccccc1)NC(=O)[C@H](CCC(=O)O)NC(=O)[C@H](CCCCNC(=O)COCCOCCNC(=O)COCCOCCNC(=O)CC[C@H](NC(=O)CCCCCCCCCCCCCCCCC(=O)O)C(=O)O)NC(=O)[C@H](C)NC(=O)[C@H](C)NC(=O)[C@H](CCC(N)=O)NC(=O)CNC(=O)[C@H](CCC(=O)O)NC(=O)[C@H](CC(C)C)NC(=O)[C@H](Cc1ccc(O)cc1)NC(=O)[C@H](CO)NC(=O)[C@H](CO)NC(=O)[C@@H](NC(=O)[C@H](CC(=O)O)NC(=O)[C@H](CO)NC(=O)[C@@H](NC(=O)[C@H](Cc1ccccc1)NC(=O)[C@@H](NC(=O)CNC(=O)[C@H](CCC(=O)O)NC(=O)C(C)(C)NC(=O)[C@@H](N)Cc1cnc[nH]1)[C@@H](C)O)[C@@H](C)O)C(C)C)C(=O)N[C@@H](C)C(=O)N[C@@H](Cc1c[nH]c2ccccc12)C(=O)N[C@@H](CC(C)C)C(=O)N[C@H](C(=O)N[C@@H](CCCNC(=N)N)C(=O)NCC(=O)N[C@@H](CCCNC(=N)N)C(=O)NCC(=O)O)C(C)C [Semaglutide]
Rate of crossing the BBB after IV administration [2]: undetectable within an hour
Rate of whole brain uptake an hour after IV administration [2]: undetectable
Time for brain detection after systemic administration [2]: took hours for brain detection

Compound: glucagon-like peptide-1 [GLP-1]
Half-life in plasma [4]: less than 2 min

Compound: liraglutide: incretin receptor agonist, cited BBB data
Time for brain detection after systemic administration [2]: took hours for brain detection

Compound: albiglutide: incretin receptor agonist, cited IV BBB data
Rate of crossing the BBB after IV administration [2]: quickly

Compound: tirzepatide: incretin receptor agonist, cited IV BBB data
Rate of crossing the BBB after IV administration [2]: undetectable within an hour
